Data: paper PMC4449531, “Identification and characterization of a novel group of legume-specific, Golgi apparatus-localized WRKY and Exo70 proteins from soybean”

Legend:
AtWRKY33 = AtWRKY33 (Arabidopsis, UniProt Q8S8P5 1-519); assay: EMSA; not stated; EMSA as in Zheng et al., 2006; conditions: protein: recombinant; tags: His (pET32a); label: labelled by Klenow fill-in
GmWRP1 = target: T1, GmWRP1 (Glycine max, UniProt I1MBG9 1-332); assay: EMSA; not stated; EMSA as in Zheng et al., 2006; conditions: protein: recombinant; tags: His (pET32a); label: labelled by Klenow fill-in
T1 sequence: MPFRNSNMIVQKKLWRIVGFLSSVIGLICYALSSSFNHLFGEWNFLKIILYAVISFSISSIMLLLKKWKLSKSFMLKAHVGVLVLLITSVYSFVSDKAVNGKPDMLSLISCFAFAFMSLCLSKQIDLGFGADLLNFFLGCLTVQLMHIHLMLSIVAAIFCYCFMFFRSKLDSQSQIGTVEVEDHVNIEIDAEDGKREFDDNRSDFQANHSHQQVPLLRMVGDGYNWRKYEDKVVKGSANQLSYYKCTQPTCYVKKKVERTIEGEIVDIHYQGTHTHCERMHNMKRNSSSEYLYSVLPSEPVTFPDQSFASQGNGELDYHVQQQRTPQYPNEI

Chain of AtWRKY33 (Q8S8P5 whole entry): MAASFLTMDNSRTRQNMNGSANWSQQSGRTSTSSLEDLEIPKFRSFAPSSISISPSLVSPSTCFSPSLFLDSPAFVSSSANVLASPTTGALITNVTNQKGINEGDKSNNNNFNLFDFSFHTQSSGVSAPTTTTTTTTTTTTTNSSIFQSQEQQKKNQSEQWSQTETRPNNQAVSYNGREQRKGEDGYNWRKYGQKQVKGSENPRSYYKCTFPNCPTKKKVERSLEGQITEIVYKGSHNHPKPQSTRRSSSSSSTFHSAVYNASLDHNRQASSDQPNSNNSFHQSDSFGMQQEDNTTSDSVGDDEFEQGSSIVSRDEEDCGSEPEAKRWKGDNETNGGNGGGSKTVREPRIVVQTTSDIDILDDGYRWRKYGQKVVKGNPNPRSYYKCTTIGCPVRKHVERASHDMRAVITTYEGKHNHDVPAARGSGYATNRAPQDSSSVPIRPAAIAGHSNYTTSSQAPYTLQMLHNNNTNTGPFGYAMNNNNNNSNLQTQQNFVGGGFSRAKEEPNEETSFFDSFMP

| Binder | binding result (AtWRKY33) | binding result (GmWRP1) |
| --- | --- | --- |
| Pchn0 (dsDNA) DNA 1: GGAACTTGACCTTGACCTTAGGGCTGCAGGAATTCG DNA 2: CGAATTCCTGCAGCCCTAAGGTCAAGGTCAAGTTCC | binds | no binding |
| mPchn0 (dsDNA) DNA 1: GGAACTTGAACTTGAACTTAGGGCTGCAGGAATTCG DNA 2: CGAATTCCTGCAGCCCTAAGTTCAAGTTCAAGTTCC | no binding | no binding |
